Assay results reported in patent US20260234247A1 (published 2026).
Numbering of substitutions follows the chain as printed.

B1: LK-RB2-2 (antibody, human IgG4 S228P, kappa, V domains shown)
VH: DVKLEESGEGLVKPGGSLKLSCAASGFTFSSYAMSWVRQTPEKRLEWVAYISSGGDYFHYADTVKGRFTISRDNARNTLYLQMSSLKSEDTAMYYCTREGAHYDSSYLAWFAHWGQGTLVTVSA
VL: DIQMTQSPASLSVSVGETVTITCRASENIYSNLAWYQQRQGKSPQLLVYAATNLADGVPSRFSGSGSGTQYSLKINSLQSEDFGSYYCQQFWDNPLTFGAGTKLELKR
B2: LK-RB2-30 (antibody, human IgG4 S228P, kappa, V domains shown)
VH: EVQLVESGGGLVQPGGSLKLSCAASGFTFNTDGMSWVRQTPDKRLELVAIINSNGGSTYYPDSVKGRFTISRDNAKNTLYLQMSSLKSEDTAMYYCAREGSYGSWFAYWGQGTLVTVSA
VL: B1 VL with Y30N, S31N, Q37H, R39K, Q90H, D93G, N94T, L96F, A100G, L106I
B3: LK-RB2-38 (antibody, human IgG4 S228P, kappa, V domains shown)
VH: EVKLVESGGGLVQPGGSLKLSCAASGFSFSDYYMYWVRQTPEKRLEWVAYISNGGGNTYYPDTVKGRFTISRDNAKNSLYLQMSRLKSEDTGMYYCARDREDWYFDVWGTGTTVTVSS
VL: DIVMTQSHTFMSTSVGDRVSITCKASQDVSTAVAWYQQKPGQSPKLLIYWASTRHTGVPDRFTGSGSGTDYTLTISSVQAEDLALYYCQQHYSTPRTFGGGTKLEIKR
B4: LK-RB2-42 (antibody, human IgG4 S228P, kappa, V domains shown)
VH: EFQLQQSGPELVKPGASVKISCKASGYSFTDYNMNWVKQSNGKSLDWIGIINPKYGTTAYNQKLRDKATLTVDQSSSTAYMQLNSLTSEDSAVYYCASLNWDEGFAYWGQGTLVTVSP
VL: DVLMTQTPLSLPVSLGDQASISCRSSQSIVHSNGNTYLEWYLQKPGQPPKLLIYKVSNRFSGVPERFSGSGSGTDFTLKINRVEAEDLGVYYCFQGSLVPPTFGGGTKLEIKR
B5: LK-RB2-19 (antibody, human IgG4 S228P, kappa, V domains shown)
VH: QVQLQQPGAELVKPGASVKLSCKASGYTFTSYWMHWVKQRPGQGLEWIGMIHPNSGGTNYNEKFKSKATLTVDKSSSTAYMQFSSLTSEDSAVYYCARCTVVALYYALDYWGQGTSVTVSS
VL: QIVLSQSPAILSASPGEKVTMTCRATSRVSYIHWFQQKPGSSPKPWIYVTSNLASGVPARFSGSGSGTSYSLTISKLEAEDVATYYCQQWSTNPLTFGAGTKLELKR
B6: LK-RB2-4 (antibody, human IgG4 S228P, kappa, V domains shown)
VH: EVQLVESGGDLVKPGGSLKLSCAASGFTFSNYGMSWVRQTPDKRLEWVATISSGGSYTFYPDSVKGRFTISRDNAKNTLYLQMSSLKSEDTALYYCARDYYYGKTIEGYFDYWGQGTTLTVSS
VL: DIQMTQTTSSLSASLGDRVTISCRANQDISNYLNWYQQKPDGTVKLLIYYTSRLHSGVPSRFSGSGSGTDYSLTISDLEQEDIATYFCQQGNTLPWTFGGGTKLEIKR
B7: LK-RB2-33 (antibody, human IgG4 S228P, kappa, V domains shown)
VH: EVQLQQSGVELVRPGALVKLSCKASGFNIKDYYMHWVKQRPEQGLEWIGWIDPEKGDTIYGPKFQGKASITADTSSNTAYLQLSSLTSEDTAVYYCSRGPNYGSSYAFAYWGQGTLVTVSA
VL: DVVMTQSHKFMSTSVGDRVTITCKASQDVSNAVAWYQQKPGQSPKLLIYSASYRYTGVPDRFTGSGSGTDFTFTISSMQAEDLAVYYCQQHYSLPWTFGGGTKLEIKR
B8: LK-RB2-3 (antibody, human IgG4 S228P, kappa, V domains shown)
VH: QLQLQQSDAELVKPGASVKISCKVSGYSFTDHTIHWMKQRPEQGLEWIGYIYPRDGSTKENEKFTGKATLTADKSSSTAYMQLTSLTSEDSAVYFCTGSGFDYWGQGTSLTVSS
VL: DIKMTQSPSSMYASLGERVTITCKASQDIKSYLSWFQQKPGKSPKTLIYRANRLVDGVPSRFSGSGSGQDYSLTINSLEYEDMEIYYCLQYDEFPYTFGGGTKLEIKR
B9: LK-RB2-14 (antibody, human IgG4 S228P, kappa, V domains shown)
VH: QVQLKQSGPGLVQPSQSLSITCTVSGFSLTSYGVHWVRQSPGKGLEWLGVIWRGGSTDYNAAFMSRLSITKDNSKSQVFFKMNSLQADDTAIYYCAKNEGDSTVVAWYFDVWGTGTTVTVSS
VL: DIQMTQTTSSLSASLGDRVTISCSASQGISNYLNWFQQKPDGTVKLLIYYTSSLHSGVPSRFSGSGSGTDYSLTISNLEPEDIATYYCQQYSKLPLTFGAGTKLELKR
B10: LK-RB2-21 (antibody, human IgG4 S228P, kappa, V domains shown)
VH: EVQLVESGGDLVKPGGSLKLSCAASGFTFSSYGMSWVRQTPDKRLEWVATISSGGSYTYYPDSLKGRFTISRDNAKSTLYLQMSSLKSEDTAKYYCARPYYDYIFYAIDYWGQGTSVTVSS
VL: DIQMNQSPSSLSASLGDTITITCHASQNINVWLSWYQQKPGNIPKLLIYKASNLHTGVPSRFSGSGSGTGFTLTISSLQPEDIATYYCQQGQSYPLTFGGGTKLEIKR
B11: LK-RB2-29 (antibody, human IgG4 S228P, kappa, V domains shown)
VH: QVQLQQSGAELARPGASVKLSCKASGYTFTSYWMQWVKQRPGQGLEWIGAIYPGDGDTRYTQKFKGKATLTADKSSSTAYMQLSSLASEDSAVYYCARGYYGSSYADYFDYWGQGTTLTVSS
VL: DIQMTQSPASLSASVGETVTITCRASGNIHNYLAWYQQKQGKSPQLLVYNAKTLADGVPSRFSGSGSGTQYSLKINSLQPEDFGSYYCQHFWSTPPTFGGGTKLEIKR
B12: LK-RB2-1 (antibody, human IgG4 S228P, kappa, V domains shown)
VH: QIQLVQSGPELKKPGETVKISCKASGYTFTTYGMSWVKQAPGKGLKWMGWINTYSGVSTYADDFKGRFAFSLETSASTAYLQINNLKNEDTATYFCARRYDYDGYAMDYWGQGTSVTVSS
VL: DIVMSQSPSSLAVSVGEKVTMSCKSSQSLLFSSNQKNYLAWYQQKPGQSPKLLIYWASTRESGVPDRFTGRGSGTDFTLTISSVKTEDLAVYYCQQYDTYPPTFGGGTKLEIKR
B13: LK-RB2-23 (antibody, human IgG4 S228P, kappa, V domains shown)
VH: B12 VH with T53I, S58P, Y100G, A106Y, M107F, S115T, V116L
VL: NIVLIQSAATLSVTPGDSVSLSCRASQSLSNGLHWYQQKSHESPRLLIKYGSQSISGIPSRFSGSGSGTDFTLSINSVETEDFGMYFCQQSDSWPHTFGSGTKLEIKR
B14: LK-RB2-22 (antibody, human IgG4 S228P, kappa, V domains shown)
VH: B12 VH with P14T, T53I, S58P, Y100A, A106Y, M107F, S115T, V116L
VL: NIVMTQTPKFLLVSAGDRVTITCRASQSVTNDVAWYQQRPGQSLKLLIYYASNRYTGVPDRFTGSGYGTDFTFTISTVQAEDLAVYFCQQGYSSPFTFGSGTKLEIKR

Each binder was assayed against T1, human LILRB1 expressed on CHOK1 cells (CHOK1-hLILRB1) (human, UniProt Q8NHL6 24-650) (assay: FACS binding to CHOK1-hLILRB1 cells).
T1 construct: whole, on cells; also called CHOK1-LILRB1
T1 sequence (Q8NHL6 24-650): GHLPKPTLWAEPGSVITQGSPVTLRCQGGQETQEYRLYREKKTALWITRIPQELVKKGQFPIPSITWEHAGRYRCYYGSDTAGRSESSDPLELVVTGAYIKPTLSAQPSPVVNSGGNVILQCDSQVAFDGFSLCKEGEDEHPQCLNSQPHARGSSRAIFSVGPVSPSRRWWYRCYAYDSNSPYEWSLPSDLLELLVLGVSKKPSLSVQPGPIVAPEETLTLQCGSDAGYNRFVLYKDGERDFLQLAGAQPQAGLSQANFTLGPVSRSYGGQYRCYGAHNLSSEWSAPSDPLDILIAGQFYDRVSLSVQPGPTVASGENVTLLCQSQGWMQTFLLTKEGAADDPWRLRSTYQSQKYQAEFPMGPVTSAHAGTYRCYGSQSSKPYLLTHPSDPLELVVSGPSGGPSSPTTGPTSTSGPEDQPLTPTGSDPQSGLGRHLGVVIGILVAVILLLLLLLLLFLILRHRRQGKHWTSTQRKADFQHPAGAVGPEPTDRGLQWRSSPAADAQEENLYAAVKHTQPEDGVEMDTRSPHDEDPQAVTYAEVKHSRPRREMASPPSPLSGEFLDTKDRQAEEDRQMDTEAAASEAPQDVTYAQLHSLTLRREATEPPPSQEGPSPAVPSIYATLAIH

Binder	binding result	EC50
B1	no binding	–
B2	no binding	–
B3	no binding	–
B4	no binding	–
B5	–	7.06 nM
B6	no binding	–
B7	no binding	–
B8	no binding	–
B9	no binding	–
B10	no binding	–
B11	no binding	–
B12	no binding	–
B13	–	65.5 nM
B14	–	45.3 nM

These binders were tested against T2, human LILRB2 expressed on CHOK1 cells (CHOK1-hLILRB2) (human, UniProt Q8N423 22-597) (assay: cell based RBA, flow cytometry: blocking of HLA-G binding to CHOK1-hLILRB2 cells).
T2 construct: whole, on cells; also called CHOK1-LILRB2
T2 sequence (Q8N423 22-597): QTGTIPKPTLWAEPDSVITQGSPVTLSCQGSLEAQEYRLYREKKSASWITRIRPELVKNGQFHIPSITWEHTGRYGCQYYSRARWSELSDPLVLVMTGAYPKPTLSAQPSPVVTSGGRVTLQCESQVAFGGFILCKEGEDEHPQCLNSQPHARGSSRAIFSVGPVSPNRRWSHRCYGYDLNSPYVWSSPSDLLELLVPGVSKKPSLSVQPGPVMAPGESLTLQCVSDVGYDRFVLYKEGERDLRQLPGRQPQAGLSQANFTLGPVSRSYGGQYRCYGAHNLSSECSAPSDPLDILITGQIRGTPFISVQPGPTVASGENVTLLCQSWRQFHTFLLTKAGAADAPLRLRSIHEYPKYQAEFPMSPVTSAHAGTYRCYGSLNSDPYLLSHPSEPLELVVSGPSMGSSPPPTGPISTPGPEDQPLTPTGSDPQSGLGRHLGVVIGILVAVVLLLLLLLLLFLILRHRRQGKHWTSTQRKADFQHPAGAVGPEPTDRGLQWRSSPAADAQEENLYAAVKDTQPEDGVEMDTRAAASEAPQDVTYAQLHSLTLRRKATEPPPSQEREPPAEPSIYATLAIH

Binder	EC50	Top Inhibition
B1	0.134 nM	74.5%
B5	50.3 nM	18.1%
B6	1.71 nM	65.2%
B7	1.87 nM	90%
B8	0.946 nM	73.2%
B9	0.231 nM	73.8%
B10	1.61 nM	62.4%
B12	0.323 nM	73.7%
B13	0.198 nM	71.2%
B14	0.112 nM	71.1%

What follows are binders tested against T2, human LILRB2 expressed on CHOK1 cells … (assay: FACS binding to CHOK1-hLILRB2 cells).

Binder	EC50	binding result
B1	0.25 nM	–
B2	–	no binding
B3	–	no binding
B4	–	no binding
B5	2.34 nM	–
B6	1.61 nM	–
B7	0.91 nM	–
B8	0.4 nM	–
B9	0.29 nM	–
B10	2.28 nM	–
B11	–	no binding
B12	0.24 nM	–
B13	0.26 nM	–
B14	0.22 nM	–
